This experiment deals with T1, FcγRIIIa (human, UniProt P08637 17-208).
T1 construct: extracellular domain; also called 3a; FcγRIIIa extracellular domain
In words: SPR (Biacore).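 Note: antibody variants captured on an SPR sensor chip, with FcγRIIIa passed over as analyte in HBS-EP+ buffer at 25 °C.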 Background: SPR reads the build-up and loss of mass on a sensor chip optically.

T1 sequence (P08637 other isoform, or with tags, fused parts or gaps): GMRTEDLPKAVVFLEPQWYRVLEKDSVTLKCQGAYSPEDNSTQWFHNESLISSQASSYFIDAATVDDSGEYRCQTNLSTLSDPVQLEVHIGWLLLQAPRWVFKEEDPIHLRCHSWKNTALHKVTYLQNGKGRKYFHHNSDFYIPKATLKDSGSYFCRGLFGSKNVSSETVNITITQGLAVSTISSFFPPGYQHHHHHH

B1: GpH7-A5/GpH7-B3 variant T335_14T/GpL16-k0 (antibody, human IgG1, kappa)
heavy 1: not shown
heavy 2: not shown
light: DIVMTQSPLSLPVTPGEPASISCQASESLVHSNRNTYLHWYLQKPGQSPQLLIYKVSNRFSGVPDRFSGSGSGTDFTLKISRVEAEDVGVYYCSQNTHVPPTFGQGTKVEIERTVAAPSVFIFPPSDEQLKSGTASVVCLLNNFYPREAKVQWKVDNALQSGNSQESVTEQDSKDSTYSLSSTLTLSKADYEKHKVYACEVTHQGLSSPVTKSFNRGEC
B1: the “He/Con 3a” value is 104 % of GpH7-A5/GpH7-B3/GpL16-k0.

B2: GpH7-A5/GpH7-B3 variant A330_10E/GpL16-k0 (antibody, human IgG1, kappa)
heavy 1: not shown
heavy 2: not shown
light: B1 light
notes: copies: 1 + 1 + 2
Regarding B2, the “He/Con 3a” value is 82.8 % of GpH7-A5/GpH7-B3/GpL16-k0.

B3: GpH7-A5/GpH7-B3 variant A330_19Q/GpL16-k0 (antibody, human IgG1, kappa)
heavy 1: not shown
heavy 2: not shown
light: B1 light
notes: copies: 1 + 1 + 2
Consider B3, for which the “He/Con 3a” value was 86.3 % of GpH7-A5/GpH7-B3/GpL16-k0.

B4: GpH7-A5/GpH7-B3 variant A327_13S/GpL16-k0 (antibody, human IgG1, kappa)
heavy 1: not shown
heavy 2: not shown
light: B1 light
notes: copies: 1 + 1 + 2
As for B4, the “He/Con 3a” value is 66.7 % of GpH7-A5/GpH7-B3/GpL16-k0.

B5: GpH7-A5/GpH7-B3 variant D270_19Q/GpL16-k0 (antibody, human IgG1, kappa)
heavy 1: not shown
heavy 2: not shown
light: B1 light
notes: copies: 1 + 1 + 2
Take B5: the “He/Con 3a” value was 74.2 % of GpH7-A5/GpH7-B3/GpL16-k0.

B6: GpH7-A5/GpH7-B3 variant A327_18N/GpL16-k0 (antibody, human IgG1, kappa)
heavy 1: not shown
heavy 2: not shown
light: B1 light
notes: copies: 1 + 1 + 2
Take B6: the “He/Con 3a” value was 62.8 % of GpH7-A5/GpH7-B3/GpL16-k0.

B7: GpH7-A5/GpH7-B3 variant D270_10E/GpL16-k0 (antibody, human IgG1, kappa)
heavy 1: not shown
heavy 2: not shown
light: B1 light
notes: copies: 1 + 1 + 2
With B7, the “He/Con 3a” value was 112 % of GpH7-A5/GpH7-B3/GpL16-k0.

B8: GpH7-A5/GpH7-B3 variant A327_09D/GpL16-k0 (antibody, human IgG1, kappa)
heavy 1: not shown
heavy 2: not shown
light: B1 light
notes: copies: 1 + 1 + 2
B8: the “He/Con 3a” value is 86 % of GpH7-A5/GpH7-B3/GpL16-k0.

B9: GpH7-A5/GpH7-B3 variant A330_20W/GpL16-k0 (antibody, human IgG1, kappa)
heavy 1: not shown
heavy 2: not shown
light: B1 light
notes: copies: 1 + 1 + 2
Consider B9, for which the “He/Con 3a” value is 102 % of GpH7-A5/GpH7-B3/GpL16-k0.

B10: GpH7-A5/GpH7-B3 variant A327_01G/GpL16-k0 (antibody, human IgG1, kappa)
heavy 1: not shown
heavy 2: not shown
light: B1 light
notes: copies: 1 + 1 + 2
As for B10, the “He/Con 3a” value is 74.4 % of GpH7-A5/GpH7-B3/GpL16-k0.

B11: GpH7-A5/GpH7-B3 variant D270_13S/GpL16-k0 (antibody, human IgG1, kappa)
heavy 1: not shown
heavy 2: not shown
light: B1 light
notes: copies: 1 + 1 + 2
Consider B11, for which the “He/Con 3a” value was 51.4 % of GpH7-A5/GpH7-B3/GpL16-k0.

B12: GpH7-A5/GpH7-B3 variant A327_19Q/GpL16-k0 (antibody, human IgG1, kappa)
heavy 1: not shown
heavy 2: not shown
light: B1 light
notes: copies: 1 + 1 + 2
For B12, the “He/Con 3a” value was 54 % of GpH7-A5/GpH7-B3/GpL16-k0.

B13: GpH7-A5/GpH7-B3 variant D270_14T/GpL16-k0 (antibody, human IgG1, kappa)
heavy 1: not shown
heavy 2: not shown
light: B1 light
notes: copies: 1 + 1 + 2
For the molecule B13, the “He/Con 3a” value is 55.4 % of GpH7-A5/GpH7-B3/GpL16-k0.

B14: GpH7-A5/GpH7-B3 variant A330_07I/GpL16-k0 (antibody, human IgG1, kappa)
heavy 1: not shown
heavy 2: not shown
light: B1 light
notes: copies: 1 + 1 + 2
As for B14, the “He/Con 3a” value is 101 % of GpH7-A5/GpH7-B3/GpL16-k0.

B15: GpH7-A5/GpH7-B3 variant D270_08L/GpL16-k0 (antibody, human IgG1, kappa)
heavy 1: not shown
heavy 2: not shown
light: B1 light
notes: copies: 1 + 1 + 2
For B15, the “He/Con 3a” value is 65.1 % of GpH7-A5/GpH7-B3/GpL16-k0.

B16: GpH7-A5/GpH7-B3 variant A330_18N/GpL16-k0 (antibody, human IgG1, kappa)
heavy 1: not shown
heavy 2: not shown
light: B1 light
notes: copies: 1 + 1 + 2
For the molecule B16, the “He/Con 3a” value is 67.3 % of GpH7-A5/GpH7-B3/GpL16-k0.

B17: GpH7-A5/GpH7-B3 variant A330_09D/GpL16-k0 (antibody, human IgG1, kappa)
heavy 1: not shown
heavy 2: not shown
light: B1 light
notes: copies: 1 + 1 + 2
With B17, the “He/Con 3a” value was 56.4 % of GpH7-A5/GpH7-B3/GpL16-k0.

B18: GpH7-A5/GpH7-B3 variant E269_02A/GpL16-k0 (antibody, human IgG1, kappa)
heavy 1: not shown
heavy 2: not shown
light: B1 light
notes: copies: 1 + 1 + 2
For B18, the “He/Con 3a” value was 68 % of GpH7-A5/GpH7-B3/GpL16-k0.

B19: GpH7-A5/GpH7-B3 variant A330_16H/GpL16-k0 (antibody, human IgG1, kappa)
heavy 1: not shown
heavy 2: not shown
light: B1 light
notes: copies: 1 + 1 + 2
In the case of B19, the “He/Con 3a” value was 102 % of GpH7-A5/GpH7-B3/GpL16-k0.

B20: GpH7-A5/GpH7-B3 variant A330_01G/GpL16-k0 (antibody, human IgG1, kappa)
heavy 1: not shown
heavy 2: not shown
light: B1 light
notes: copies: 1 + 1 + 2
In the case of B20, the “He/Con 3a” value was 87.3 % of GpH7-A5/GpH7-B3/GpL16-k0.

B21: GpH7-A5/GpH7-B3 variant A330_11K/GpL16-k0 (antibody, human IgG1, kappa)
heavy 1: not shown
heavy 2: not shown
light: B1 light
notes: copies: 1 + 1 + 2
As for B21, the “He/Con 3a” value is 91.8 % of GpH7-A5/GpH7-B3/GpL16-k0.

B22: GpH7-A5/GpH7-B3 variant E269_03V/GpL16-k0 (antibody, human IgG1, kappa)
heavy 1: not shown
heavy 2: not shown
light: B1 light
notes: copies: 1 + 1 + 2
On to B22, for which the “He/Con 3a” value was 56 % of GpH7-A5/GpH7-B3/GpL16-k0.

B23: GpH7-A5/GpH7-B3 variant A330_14T/GpL16-k0 (antibody, human IgG1, kappa)
heavy 1: not shown
heavy 2: not shown
light: B1 light
notes: copies: 1 + 1 + 2
With B23, the “He/Con 3a” value is 85.8 % of GpH7-A5/GpH7-B3/GpL16-k0.

B24: GpH7-A5/GpH7-B3 variant A327_20W/GpL16-k0 (antibody, human IgG1, kappa)
heavy 1: not shown
heavy 2: not shown
light: B1 light
notes: copies: 1 + 1 + 2
With B24, the “He/Con 3a” value is 52.6 % of GpH7-A5/GpH7-B3/GpL16-k0.

B25: GpH7-A5/GpH7-B3 variant D270_18N/GpL16-k0 (antibody, human IgG1, kappa)
heavy 1: not shown
heavy 2: not shown
light: B1 light
notes: copies: 1 + 1 + 2
With B25, the “He/Con 3a” value was 51.2 % of GpH7-A5/GpH7-B3/GpL16-k0.

B26: GpH7-A5/GpH7-B3 variant D270_02A/GpL16-k0 (antibody, human IgG1, kappa)
heavy 1: not shown
heavy 2: not shown
light: B1 light
notes: copies: 1 + 1 + 2
In the case of B26, the “He/Con 3a” value was 50.5 % of GpH7-A5/GpH7-B3/GpL16-k0.

B27: GpH7-A5/GpH7-B3 variant A330_03V/GpL16-k0 (antibody, human IgG1, kappa)
heavy 1: not shown
heavy 2: not shown
light: B1 light
notes: copies: 1 + 1 + 2
For the molecule B27, the “He/Con 3a” value is 98.8 % of GpH7-A5/GpH7-B3/GpL16-k0.

B28: GpH7-A5/GpH7-B3 variant A330_15Y/GpL16-k0 (antibody, human IgG1, kappa)
heavy 1: not shown
heavy 2: not shown
light: B1 light
notes: copies: 1 + 1 + 2
In the case of B28, the “He/Con 3a” value was 122 % of GpH7-A5/GpH7-B3/GpL16-k0.

B29: GpH7-A5/GpH7-B3 variant A327_05P/GpL16-k0 (antibody, human IgG1, kappa)
heavy 1: not shown
heavy 2: not shown
light: B1 light
notes: copies: 1 + 1 + 2
B29: the “He/Con 3a” value is 61.9 % of GpH7-A5/GpH7-B3/GpL16-k0.

B30: GpH7-A5/GpH7-B3 variant A327_06M/GpL16-k0 (antibody, human IgG1, kappa)
heavy 1: not shown
heavy 2: not shown
light: B1 light
notes: copies: 1 + 1 + 2
Turning to B30, the “He/Con 3a” value was 54 % of GpH7-A5/GpH7-B3/GpL16-k0.

B31: GpH7-A5/GpH7-B3 variant A330_08L/GpL16-k0 (antibody, human IgG1, kappa)
heavy 1: not shown
heavy 2: not shown
light: B1 light
notes: copies: 1 + 1 + 2
For B31, the “He/Con 3a” value is 122 % of GpH7-A5/GpH7-B3/GpL16-k0.

B32: GpH7-A5/GpH7-B3 variant A330_12R/GpL16-k0 (antibody, human IgG1, kappa)
heavy 1: not shown
heavy 2: not shown
light: B1 light
notes: copies: 1 + 1 + 2
For B32, the “He/Con 3a” value is 77.3 % of GpH7-A5/GpH7-B3/GpL16-k0.

B33: GpH7-A5/GpH7-B3 variant D270_06M/GpL16-k0 (antibody, human IgG1, kappa)
heavy 1: not shown
heavy 2: not shown
light: B1 light
notes: copies: 1 + 1 + 2
In the case of B33, the “He/Con 3a” value is 60 % of GpH7-A5/GpH7-B3/GpL16-k0.

B34: GpH7-A5/GpH7-B3 variant A330_05P/GpL16-k0 (antibody, human IgG1, kappa)
heavy 1: not shown
heavy 2: not shown
light: B1 light
notes: copies: 1 + 1 + 2
Turning to B34, the “He/Con 3a” value was 152 % of GpH7-A5/GpH7-B3/GpL16-k0.

B35: GpH7-A5/GpH7-B3 variant A327_10E/GpL16-k0 (antibody, human IgG1, kappa)
heavy 1: not shown
heavy 2: not shown
light: B1 light
notes: copies: 1 + 1 + 2
For the molecule B35, the “He/Con 3a” value is 70.5 % of GpH7-A5/GpH7-B3/GpL16-k0.

B36: GpH7-A5/GpH7-B3 variant D270_07I/GpL16-k0 (antibody, human IgG1, kappa)
heavy 1: not shown
heavy 2: not shown
light: B1 light
notes: copies: 1 + 1 + 2
As to B36, the “He/Con 3a” value is 63.1 % of GpH7-A5/GpH7-B3/GpL16-k0.

B37: GpH7-A5/GpH7-B3 variant A330_06M/GpL16-k0 (antibody, human IgG1, kappa)
heavy 1: not shown
heavy 2: not shown
light: B1 light
notes: copies: 1 + 1 + 2
Turning to B37, the “He/Con 3a” value is 139 % of GpH7-A5/GpH7-B3/GpL16-k0.

B38: GpH7-A5/GpH7-B3 variant E269_01G/GpL16-k0 (antibody, human IgG1, kappa)
heavy 1: not shown
heavy 2: not shown
light: B1 light
notes: copies: 1 + 1 + 2
For B38, the “He/Con 3a” value is 61.6 % of GpH7-A5/GpH7-B3/GpL16-k0.

B39: GpH7-A5/GpH7-B3 variant A330_04F/GpL16-k0 (antibody, human IgG1, kappa)
heavy 1: not shown
heavy 2: not shown
light: B1 light
notes: copies: 1 + 1 + 2
B39: the “He/Con 3a” value is 144 % of GpH7-A5/GpH7-B3/GpL16-k0.

B40: GpH7-A5/GpH7-B3 variant D270_03V/GpL16-k0 (antibody, human IgG1, kappa)
heavy 1: not shown
heavy 2: not shown
light: B1 light
notes: copies: 1 + 1 + 2
In the case of B40, the “He/Con 3a” value is 54.6 % of GpH7-A5/GpH7-B3/GpL16-k0.

Values taken from US20260167699A1 (Chugai, published 2026).
